Assay results from paper PMC2141740 (The Journal of Cell Biology, 1998).

Biological target: T1, HA-tagged human TGF-β type I receptor (TβRI-HA) (human, UniProt P36897 34-503)
T1 sequence (looked up): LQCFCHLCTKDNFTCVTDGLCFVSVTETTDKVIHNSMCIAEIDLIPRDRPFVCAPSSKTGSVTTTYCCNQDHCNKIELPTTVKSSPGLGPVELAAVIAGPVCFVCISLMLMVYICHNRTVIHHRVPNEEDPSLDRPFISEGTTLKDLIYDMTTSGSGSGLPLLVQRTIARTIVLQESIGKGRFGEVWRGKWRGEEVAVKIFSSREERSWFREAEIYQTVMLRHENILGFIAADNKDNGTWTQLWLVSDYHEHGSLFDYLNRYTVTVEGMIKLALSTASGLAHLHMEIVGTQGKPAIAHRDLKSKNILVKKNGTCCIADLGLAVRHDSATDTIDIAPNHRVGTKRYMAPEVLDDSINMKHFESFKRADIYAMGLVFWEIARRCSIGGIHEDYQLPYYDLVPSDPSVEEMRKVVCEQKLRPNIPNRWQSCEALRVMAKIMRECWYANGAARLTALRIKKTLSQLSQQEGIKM
Assay: antibody-mediated immunofluorescence copatching

stoichiometry N: 2
B1: myc-tagged human TGF-β type I receptor (TβRI-myc) (receptor, UniProt P36897 34-503, looked up)
chain: LQCFCHLCTKDNFTCVTDGLCFVSVTETTDKVIHNSMCIAEIDLIPRDRPFVCAPSSKTGSVTTTYCCNQDHCNKIELPTTVKSSPGLGPVELAAVIAGPVCFVCISLMLMVYICHNRTVIHHRVPNEEDPSLDRPFISEGTTLKDLIYDMTTSGSGSGLPLLVQRTIARTIVLQESIGKGRFGEVWRGKWRGEEVAVKIFSSREERSWFREAEIYQTVMLRHENILGFIAADNKDNGTWTQLWLVSDYHEHGSLFDYLNRYTVTVEGMIKLALSTASGLAHLHMEIVGTQGKPAIAHRDLKSKNILVKKNGTCCIADLGLAVRHDSATDTIDIAPNHRVGTKRYMAPEVLDDSINMKHFESFKRADIYAMGLVFWEIARRCSIGGIHEDYQLPYYDLVPSDPSVEEMRKVVCEQKLRPNIPNRWQSCEALRVMAKIMRECWYANGAARLTALRIKKTLSQLSQQEGIKM
